In paper PMC4113749 (Toxins, 2014):

B1: isolated TcdA CROPs (TcdA^1875–2710) (domain or fragment)
chain: YKIINGKHFYFNNDGVMQLGVFKGPDGFEYFAPANTQNNNIEGQAIVYQSKFLTLNGKKYYFDNNSKAVTGWRIINNEKYYFNPNNAIAAVGLQVIDNNKYYFNPDTAIISKGWQTVNGSRYYFDTDTAIAFNGYKTIDGKHFYFDSDCVVKIGVFSTSNGFEYFAPANTYNNNIEGQAIVYQSKFLTLNGKKYYFDNNSKAVTGLQTIDSKKYYFNTNTAEAATGWQTIDGKKYYFNTNTAEAATGWQTIDGKKYYFNTNTAIASTGYTIINGKHFYFNTDGIMQIGVFKGPNGFEYFAPANTDANNIEGQAILYQNEFLTLNGKKYYFGSDSKAVTGWRIINNKKYYFNPNNAIAAIHLCTINNDKYYFSYDGILQNGYITIERNNFYFDANNESKMVTGVFKGPNGFEYFAPANTHNNNIEGQAIVYQNKFLTLNGKKYYFDNDSKAVTGWQTIDGKKYYFNLNTAEAATGWQTIDGKKYYFNLNTAEAATGWQTIDGKKYYFNTNTFIASTGYTSINGKHFYFNTDGIMQIGVFKGPNGFEYFAPANTDANNIEGQAILYQNKFLTLNGKKYYFGSDSKAVTGLRTIDGKKYYFNTNTAVAVTGWQTINGKKYYFNTNTSIASTGYTIISGKHFYFNTDGIMQIGVFKGPDGFEYFAPANTDANNIEGQAIRYQNRFLYLHDNIYYFGNNSKAATGWVTIDGNRYYFEPNTAMGANGYKTIDNKNFYFRNGLPQIGVFKGSNGFEYFAPANTDANNIEGQAIRYQNRFLHLLGKIYYFGNNSKAVTGWQTINGKVYYFMPDTAMAAAGGLFEIDGVIYFFGVDGVKAPGIYG
B2: TcdA^1–1874-EGFP (domain or fragment)
chain: MSLISKEELIKLAYSIRPRENEYKTILTNLDEYNKLTTNNNENKYLQLKKLNESIDVFMNKYKTSSRNRALSNLKKDILKEVILIKNSNTSPVEKNLHFVWIGGEVSDIALEYIKQWADINAEYNIKLWYDSEAFLVNTLKKAIVESSTTEALQLLEEEIQNPQFDNMKFYKKRMEFIYDRQKRFINYYKSQINKPTVPTIDDIIKSHLVSEYNRDETVLESYRTNSLRKINSNHGIDIRANSLFTEQELLNIYSQELLNRGNLAAASDIVRLLALKNFGGVYLDVDMLPGIHSDLFKTISRPSSIGLDRWEMIKLEAIMKYKKYINNYTSENFDKLDQQLKDNFKLIIESKSEKSEIFSKLENLNVSDLEIKIAFALGSVINQALISKQGSYLTNLVIEQVKNRYQFLNQHLNPAIESDNNFTDTTKIFHDSLFNSATAENSMFLTKIAPYLQVGFMPEARSTISLSGPGAYASAYYDFINLQENTIEKTLKASDLIEFKFPENNLSQLTEQEINSLWSFDQASAKYQFEKYVRDYTGGSLSEDNGVDFNKNTALDKNYLLNNKIPSNNVEEAGSKNYVHYIIQLQGDDISYEATCNLFSKNPKNSIIIQRNMNESAKSYFLSDDGESILELNKYRIPERLKNKEKVKVTFIGHGKDEFNTSEFARLSVDSLSNEISSFLDTIKLDISPKNVEVNLLGCNMFSYDFNVEETYPGKLLLSIMDKITSTLPDVNKNSITIGANQYEVRINSEGRKELLAHSGKWINKEEAIMSDLSSKEYIFFDSIDNKLKAKSKNIPGLASISEDIKTLLLDASVSPDTKFILNNLKLNIESSIGDYIYYEKLEPVKNIIHNSIDDLIDEFNLLENVSDELYELKKLNNLDEKYLISFEDISKNNSTYSVRFINKSNGESVYVETEKEIFSKYSEHITKEISTIKNSIITDVNGNLLDNIQLDHTSQVNTLNAAFFIQSLIDYSSNKDVLNDLSTSVKVQLYAQLFSTGLNTIYDSIQLVNLISNAVNDTINVLPTITEGIPIVSTILDGINLGAAIKELLDEHDPLLKKELEAKVGVLAINMSLSIAATVASIVGIGAEVTIFLLPIAGISAGIPSLVNNELILHDKATSVVNYFNHLSESKKYGPLKTEDDKILVPIDDLVISEIDFNNNSIKLGTCNILAMEGGSGHTVTGNIDHFFSSPSISSHIPSLSIYSAIGIETENLDFSKKIMMLPNAPSRVFWWETGAVPGLRSLENDGTRLLDSIRDLYPGKFYWRFYAFFDYAITTLKPVYEDTNIKIKLDKDTRNFIMPTITTNEIRNKLSYSFDGAGGTYSLLLSSYPISTNINLSKDDLWIFNIDNEVREISIENGTIKKGKLIKDVLSKIDINKNKLIIGNQTIDFSGDIDNKDRYIFLTCELDDKISLIIEINLVAKSYSLLLSGDKNYLISNLSNTIEKINTLGLDSKNIAYNYTDESNNKYFGAISKTSQKSIIHYKKDSKNILEFYNDSTLEFNSKDFIAEDINVFMKDDINTITGKYYVDNNTDKSIDFSISLVSKNQVKVNGLYLNESVYSSYLDFVKNSDGHHNTSNFMNLFLDNISFWKLFGFENINFVIDKYFTLVGKTNLGYVEFICDNNKNIDIYFGEWKTSSSKSTIFSGNGRNVVVEPIYNPDTGEDISTSLDFSYEPLYGIDRYINKVLIAPDLYTSLININTNYYSNEYYPEIIVLNPNTFHKKVNINLDSSSFEYKWSTEGSDFILVRYLEESNKKILQKIRIKGILSNTQSFNKMSIDFKDIKKLSLGYIMSNFKSFNSENELDRDHLGFKIIDNKTYYYDEDSKLVKGLININNSLFYFDPIEFNLVTGWQTINGKKYYFDINTGAALTS
B3: TcdA^1102–1847 (intermediate domain of toxin A) (domain or fragment)
chain: SAGIPSLVNNELILHDKATSVVNYFNHLSESKKYGPLKTEDDKILVPIDDLVISEIDFNNNSIKLGTCNILAMEGGSGHTVTGNIDHFFSSPSISSHIPSLSIYSAIGIETENLDFSKKIMMLPNAPSRVFWWETGAVPGLRSLENDGTRLLDSIRDLYPGKFYWRFYAFFDYAITTLKPVYEDTNIKIKLDKDTRNFIMPTITTNEIRNKLSYSFDGAGGTYSLLLSSYPISTNINLSKDDLWIFNIDNEVREISIENGTIKKGKLIKDVLSKIDINKNKLIIGNQTIDFSGDIDNKDRYIFLTCELDDKISLIIEINLVAKSYSLLLSGDKNYLISNLSNTIEKINTLGLDSKNIAYNYTDESNNKYFGAISKTSQKSIIHYKKDSKNILEFYNDSTLEFNSKDFIAEDINVFMKDDINTITGKYYVDNNTDKSIDFSISLVSKNQVKVNGLYLNESVYSSYLDFVKNSDGHHNTSNFMNLFLDNISFWKLFGFENINFVIDKYFTLVGKTNLGYVEFICDNNKNIDIYFGEWKTSSSKSTIFSGNGRNVVVEPIYNPDTGEDISTSLDFSYEPLYGIDRYINKVLIAPDLYTSLININTNYYSNEYYPEIIVLNPNTFHKKVNINLDSSSFEYKWSTEGSDFILVRYLEESNKKILQKIRIKGILSNTQSFNKMSIDFKDIKKLSLGYIMSNFKSFNSENELDRDHLGFKIIDNKTYYYDEDSKLVKGLININNSLFYFDPIE

Legend:
Settings in all cases: both partners purified
[1] = biological target: B2; test: MST
[2] = biological target: recombinant Rac1 (UniProt P63000 1-192); test: MST
[3] = biological target: GST-fused TcdA CROPs (combined repetitive oligopeptides of Clostridium difficile toxin A) (Clostridium difficile (strain VPI 10463), UniProt P16154 1875-2710); test: pull-down

## B1
[1]
  Kd: 1440 ± 70 nM

## B2
[2]
  Kd: 3320 ± 360 nM

## B3
[3]
  binding result: binds
